Laboratory results as given in patent US10087225B2, “Formulation of MK2 inhibitor peptides” (MOERAE MATRIX, INC., priority 2015, dated 2018).

Experiments:
Assay in all cases: Kinase Profiling Assay
Assay type in all cases: biochemical
Conditions in all cases: 100 μM
Fes(h) = Fes(h) (Homo sapiens, UniProt P07332)
NEK2(h) = target: T1, NEK2(h) (Homo sapiens, UniProt P51955)
T1 sequence (P51955 1-445): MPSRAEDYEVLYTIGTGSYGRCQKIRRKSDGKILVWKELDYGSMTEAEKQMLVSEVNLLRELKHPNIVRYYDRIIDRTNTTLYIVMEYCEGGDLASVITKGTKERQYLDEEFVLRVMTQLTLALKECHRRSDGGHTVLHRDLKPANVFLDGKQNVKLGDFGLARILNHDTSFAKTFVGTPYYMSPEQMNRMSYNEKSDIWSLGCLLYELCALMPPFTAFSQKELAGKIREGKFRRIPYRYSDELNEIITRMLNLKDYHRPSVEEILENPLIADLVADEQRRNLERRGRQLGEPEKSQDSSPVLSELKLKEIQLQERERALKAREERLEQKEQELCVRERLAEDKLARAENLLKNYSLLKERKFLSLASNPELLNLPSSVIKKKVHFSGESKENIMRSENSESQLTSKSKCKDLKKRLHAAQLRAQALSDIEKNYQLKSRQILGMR

Lyn(h) = Lyn(h) (Homo sapiens, UniProt P07948)
Rse(h) = target: T2, Rse(h) (Homo sapiens, UniProt Q06418)
T2 sequence (Q06418 41-890): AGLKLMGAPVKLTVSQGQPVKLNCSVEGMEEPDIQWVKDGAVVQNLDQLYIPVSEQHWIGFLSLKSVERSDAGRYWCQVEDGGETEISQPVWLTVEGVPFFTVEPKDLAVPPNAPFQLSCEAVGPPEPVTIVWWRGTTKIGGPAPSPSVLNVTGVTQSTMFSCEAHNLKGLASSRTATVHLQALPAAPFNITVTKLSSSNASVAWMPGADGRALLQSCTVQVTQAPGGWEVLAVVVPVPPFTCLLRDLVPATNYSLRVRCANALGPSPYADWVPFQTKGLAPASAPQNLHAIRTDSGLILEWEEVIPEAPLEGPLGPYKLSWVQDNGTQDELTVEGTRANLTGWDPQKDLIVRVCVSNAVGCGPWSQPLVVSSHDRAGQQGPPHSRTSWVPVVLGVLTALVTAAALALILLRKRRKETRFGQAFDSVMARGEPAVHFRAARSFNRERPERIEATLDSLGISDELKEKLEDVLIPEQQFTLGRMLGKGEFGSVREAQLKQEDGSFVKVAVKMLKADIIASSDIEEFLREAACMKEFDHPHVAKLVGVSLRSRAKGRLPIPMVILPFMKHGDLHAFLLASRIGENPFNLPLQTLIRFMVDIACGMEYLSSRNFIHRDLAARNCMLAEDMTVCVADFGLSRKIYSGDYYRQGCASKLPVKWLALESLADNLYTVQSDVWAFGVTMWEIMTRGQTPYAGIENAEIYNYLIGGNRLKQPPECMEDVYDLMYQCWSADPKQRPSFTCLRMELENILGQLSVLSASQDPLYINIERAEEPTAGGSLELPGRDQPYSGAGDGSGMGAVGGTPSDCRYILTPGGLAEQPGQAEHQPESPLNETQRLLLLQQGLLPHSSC

JNK3(h) = JNK3(h) (Homo sapiens, UniProt P53779)
LKB1(h) = target: T3, LKB1(h) (Homo sapiens, UniProt Q15831)
T3 sequence (Q15831 1-433): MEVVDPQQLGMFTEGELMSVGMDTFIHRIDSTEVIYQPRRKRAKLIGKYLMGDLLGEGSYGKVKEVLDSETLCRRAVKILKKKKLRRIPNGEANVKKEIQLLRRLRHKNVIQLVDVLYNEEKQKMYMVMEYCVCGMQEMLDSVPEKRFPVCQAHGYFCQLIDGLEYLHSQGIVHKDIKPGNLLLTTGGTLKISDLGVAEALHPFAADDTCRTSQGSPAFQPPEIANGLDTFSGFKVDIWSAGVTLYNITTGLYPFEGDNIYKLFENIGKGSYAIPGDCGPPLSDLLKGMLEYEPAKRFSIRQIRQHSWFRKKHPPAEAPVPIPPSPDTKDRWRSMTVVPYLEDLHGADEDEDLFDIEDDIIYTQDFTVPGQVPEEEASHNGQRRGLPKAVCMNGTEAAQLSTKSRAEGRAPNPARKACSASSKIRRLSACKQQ
T3 sequence (Q7RTN6 1-431 partner): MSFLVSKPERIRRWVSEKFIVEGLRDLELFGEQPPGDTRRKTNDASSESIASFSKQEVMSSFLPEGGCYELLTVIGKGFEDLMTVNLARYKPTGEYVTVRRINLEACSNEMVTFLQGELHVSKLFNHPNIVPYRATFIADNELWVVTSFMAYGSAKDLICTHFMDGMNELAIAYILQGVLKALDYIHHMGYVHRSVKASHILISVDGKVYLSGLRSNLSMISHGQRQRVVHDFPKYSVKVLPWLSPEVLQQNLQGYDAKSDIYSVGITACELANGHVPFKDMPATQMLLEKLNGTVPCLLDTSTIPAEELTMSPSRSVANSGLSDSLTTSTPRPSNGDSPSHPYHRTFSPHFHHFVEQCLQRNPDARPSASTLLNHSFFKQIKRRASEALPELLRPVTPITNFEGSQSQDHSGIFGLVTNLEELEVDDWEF
T3 sequence (Q9Y376 1-341 partner): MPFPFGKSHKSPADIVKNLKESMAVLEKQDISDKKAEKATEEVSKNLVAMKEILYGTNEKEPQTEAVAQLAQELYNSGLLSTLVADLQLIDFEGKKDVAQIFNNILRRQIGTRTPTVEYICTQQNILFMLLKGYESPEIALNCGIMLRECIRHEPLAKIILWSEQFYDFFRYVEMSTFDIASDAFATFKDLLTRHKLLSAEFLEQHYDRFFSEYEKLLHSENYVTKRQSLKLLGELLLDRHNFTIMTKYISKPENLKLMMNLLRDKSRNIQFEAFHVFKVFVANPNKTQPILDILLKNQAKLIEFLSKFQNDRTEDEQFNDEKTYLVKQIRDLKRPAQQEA

IRAK1(h) = IRAK1(h) (Homo sapiens, UniProt P51617)
EGFR(T790M,L858R)(h) = EGFR(T790M,L858R)(h) (Homo sapiens, UniProt P00533, L858R/T790M)
Lck(h) activated = Lck(h) activated (Homo sapiens, UniProt P06239)
PKCγ(h) = PKCγ(h) (Homo sapiens, UniProt P05129)

Lyn(h), sequence (P07948 whole entry): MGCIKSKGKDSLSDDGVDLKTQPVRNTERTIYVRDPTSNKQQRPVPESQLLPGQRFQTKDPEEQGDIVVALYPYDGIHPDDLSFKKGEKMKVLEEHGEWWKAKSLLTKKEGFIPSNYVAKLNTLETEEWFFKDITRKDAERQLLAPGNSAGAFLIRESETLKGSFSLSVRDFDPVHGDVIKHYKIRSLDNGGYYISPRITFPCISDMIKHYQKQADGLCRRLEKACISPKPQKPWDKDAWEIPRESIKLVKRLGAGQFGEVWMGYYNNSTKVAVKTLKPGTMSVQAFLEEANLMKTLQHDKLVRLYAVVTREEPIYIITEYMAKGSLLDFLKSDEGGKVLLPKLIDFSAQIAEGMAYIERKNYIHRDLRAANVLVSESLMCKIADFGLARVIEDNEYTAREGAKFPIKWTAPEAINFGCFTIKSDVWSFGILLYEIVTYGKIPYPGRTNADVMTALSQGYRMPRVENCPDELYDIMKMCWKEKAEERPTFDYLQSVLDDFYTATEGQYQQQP
JNK3(h), sequence (P53779 whole entry): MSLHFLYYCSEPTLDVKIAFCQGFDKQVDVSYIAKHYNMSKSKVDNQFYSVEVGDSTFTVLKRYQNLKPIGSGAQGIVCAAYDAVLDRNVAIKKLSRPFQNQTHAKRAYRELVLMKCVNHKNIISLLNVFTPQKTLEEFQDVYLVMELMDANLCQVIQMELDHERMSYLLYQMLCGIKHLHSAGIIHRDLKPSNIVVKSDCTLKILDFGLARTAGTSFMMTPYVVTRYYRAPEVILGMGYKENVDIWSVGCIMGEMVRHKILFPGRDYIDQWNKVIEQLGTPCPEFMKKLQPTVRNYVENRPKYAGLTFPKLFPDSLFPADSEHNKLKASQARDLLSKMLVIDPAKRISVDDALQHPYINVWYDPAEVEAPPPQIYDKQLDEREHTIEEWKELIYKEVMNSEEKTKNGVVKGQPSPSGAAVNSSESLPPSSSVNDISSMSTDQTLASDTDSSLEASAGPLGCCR
Fes(h), sequence (P07332 whole entry): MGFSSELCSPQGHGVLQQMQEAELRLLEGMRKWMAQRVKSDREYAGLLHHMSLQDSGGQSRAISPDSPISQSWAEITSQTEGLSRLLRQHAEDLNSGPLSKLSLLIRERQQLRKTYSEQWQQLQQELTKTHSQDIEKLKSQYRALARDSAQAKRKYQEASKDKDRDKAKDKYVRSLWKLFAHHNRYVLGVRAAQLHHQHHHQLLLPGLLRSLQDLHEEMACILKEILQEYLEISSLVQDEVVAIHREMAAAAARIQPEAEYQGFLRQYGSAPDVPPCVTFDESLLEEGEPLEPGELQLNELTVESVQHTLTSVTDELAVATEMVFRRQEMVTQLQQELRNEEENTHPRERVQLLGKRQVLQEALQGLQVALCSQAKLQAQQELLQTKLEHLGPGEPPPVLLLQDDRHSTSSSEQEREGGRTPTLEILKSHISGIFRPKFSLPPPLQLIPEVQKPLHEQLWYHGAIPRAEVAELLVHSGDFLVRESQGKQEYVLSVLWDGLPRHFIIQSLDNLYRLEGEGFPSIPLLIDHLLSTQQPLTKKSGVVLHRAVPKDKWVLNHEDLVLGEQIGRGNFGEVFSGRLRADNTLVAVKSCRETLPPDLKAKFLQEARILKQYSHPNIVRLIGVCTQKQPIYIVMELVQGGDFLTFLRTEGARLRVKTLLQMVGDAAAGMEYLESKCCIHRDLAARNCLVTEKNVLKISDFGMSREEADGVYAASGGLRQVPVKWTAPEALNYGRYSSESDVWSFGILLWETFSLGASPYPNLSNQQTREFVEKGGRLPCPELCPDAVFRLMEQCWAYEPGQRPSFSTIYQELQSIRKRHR
Lck(h) activated, sequence (P06239 whole entry): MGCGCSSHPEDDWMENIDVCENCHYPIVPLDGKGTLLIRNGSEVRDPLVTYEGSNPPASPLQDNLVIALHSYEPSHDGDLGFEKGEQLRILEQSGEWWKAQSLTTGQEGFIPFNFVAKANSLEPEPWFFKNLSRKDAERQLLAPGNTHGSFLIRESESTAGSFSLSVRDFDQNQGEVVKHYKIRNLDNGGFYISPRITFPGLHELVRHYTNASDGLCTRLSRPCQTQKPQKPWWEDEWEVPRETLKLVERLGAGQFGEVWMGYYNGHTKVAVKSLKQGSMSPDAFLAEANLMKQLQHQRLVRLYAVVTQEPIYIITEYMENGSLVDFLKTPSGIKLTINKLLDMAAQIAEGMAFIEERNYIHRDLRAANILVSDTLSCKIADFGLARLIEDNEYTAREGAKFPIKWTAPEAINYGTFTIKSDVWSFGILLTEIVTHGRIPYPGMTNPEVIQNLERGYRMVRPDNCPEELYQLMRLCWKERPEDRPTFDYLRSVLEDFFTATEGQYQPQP
IRAK1(h), sequence (P51617 whole entry): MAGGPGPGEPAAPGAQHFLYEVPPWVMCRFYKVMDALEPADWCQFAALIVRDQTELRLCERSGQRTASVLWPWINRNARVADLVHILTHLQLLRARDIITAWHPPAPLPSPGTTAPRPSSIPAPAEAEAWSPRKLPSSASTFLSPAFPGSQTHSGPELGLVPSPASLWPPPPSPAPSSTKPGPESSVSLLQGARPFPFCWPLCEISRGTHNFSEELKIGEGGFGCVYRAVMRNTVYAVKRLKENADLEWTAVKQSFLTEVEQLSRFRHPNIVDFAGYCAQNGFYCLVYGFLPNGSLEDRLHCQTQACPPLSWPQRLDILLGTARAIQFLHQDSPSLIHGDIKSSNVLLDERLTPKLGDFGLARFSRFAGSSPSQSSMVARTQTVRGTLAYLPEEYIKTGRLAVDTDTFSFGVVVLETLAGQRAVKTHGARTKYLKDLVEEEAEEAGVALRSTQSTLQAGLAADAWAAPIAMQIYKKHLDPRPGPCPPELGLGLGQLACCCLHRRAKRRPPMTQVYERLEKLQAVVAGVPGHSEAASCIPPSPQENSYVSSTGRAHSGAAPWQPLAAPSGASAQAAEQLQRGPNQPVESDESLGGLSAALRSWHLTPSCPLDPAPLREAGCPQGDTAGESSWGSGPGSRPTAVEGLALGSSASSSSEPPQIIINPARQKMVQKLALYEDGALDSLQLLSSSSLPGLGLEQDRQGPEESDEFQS

Sequence	% activity (Fes(h)) [%]	% activity (NEK2(h)) [%]	% activity (Lyn(h)) [%]	% activity (Rse(h)) [%]	% activity (JNK3(h)) [%]	% activity (LKB1(h)) [%]	% activity (IRAK1(h)) [%]	% activity (EGFR(T790M,L858R)(h)) [%]	% activity (Lck(h) activated) [%]	% activity (PKCγ(h)) [%]
HRRIKAWLKKIKALARQLGVAA (Mammalian) [MMI-0500]	23	0	31	63	171	51	5	53	76	6
YARAAARQARAKALNRQLGVA (Mammalian) [MMI-0200]	74	97	98	88	90	99	101	108	90	101
